{
  "source": "patent US20250066483A1",
  "binders": {"B1": {"name": "rat anti-bovine PD-1 monoclonal antibody 5D2 (antibody, V domains shown)", "VH": "QVQLKETGPGLVQPTQTLSITCTVSGFSLTSYYIQWVRQTPGKGLEWMGFIRSGGSTEYNSEFKSRLSINRDTSKNQVFLKMNSLKTEDTGVYYCARTSSGYEGGFDYWGQGVMVTVSS", "VL": "DVVLTQTPVSLSVTLGDQASISCRSSQSLEYSDGYTYLEWYLQKPGQSPQLLIYGVSNRFSGVPDRFIGSGSGTDFTLKISRVEPEDLGVYYCFQATHDPDTFGAGTKLELK"}},
  "molecular_target": "bovine PD-1-His (bovine)",
  "assay": "SPR (Biacore X100), bovine PD-1-His immobilised on a CM5 chip, antibody as analyte, single kinetics, 3 repeats",
  "data": [
    {"binder": "B1", "values": [
      {"measurement": "Kd", "result": 12.2, "unit": "nM"},
      {"measurement": "koff", "result": 0.000215, "unit": "s⁻¹"},
      {"measurement": "kon", "result": 18400, "unit": "M⁻¹ s⁻¹"}
    ]}
  ]
}
